Assay results reported in the Human Domainome abundance scans (Beltran et al. 2025).
± gives the uncertainty stated by the source.

B1: Zinc finger protein ZIC 2, residues 250 to 295; numbered along this chain, O95409 (parent)
chain: QCIKQELICKWIDPEQLSNPKKSCNKTFSTMHELVTHVSVEHVGGP

Variants of: B1
Assay: abundance fitness (aPCA) (normalised: wild type 0, dead -1); higher = more abundant; growth selection in yeast, the domain comes from the species named
Conditions: Homo sapiens

Variant	abundance fitness
QCIKQELICKWIDPEQLSNPKKSCNKTFSTDHELVTHVSVEHVGGP [M31D]	0.334 ± 0.098
QCIKQELICKWIDPEQLSNPKKSCNKTFSTTHELVTHVSVEHVGGP [M31T]	0.042 ± 0.099
QCIKQELICKWIDPEQLSNPKKSCNKTFSTEHELVTHVSVEHVGGP [M31E]	0.373 ± 0.089
QCIKQELICKWIDPEQLSNPKKSCNKTFSTMHETVTHVSVEHVGGP [L34T]	-0.696 ± 0.1
QCIKQELICKWIDPEQLSNPKKSCNKTFSTMHEKVTHVSVEHVGGP [L34K]	-0.23 ± 0.1
QCIKQELICKWIDPEQLSNPKKSCNKTFSTMHEVVTHVSVEHVGGP [L34V]	-0.615 ± 0.09
QCIKQELICKWIDPEQLSNPKKSCNKTFSTMHEDVTHVSVEHVGGP [L34D]	-0.828 ± 0.13
QCIKQELICKWIDPEQLSNPKKSCNKTFSTMHEPVTHVSVEHVGGP [L34P]	-0.371 ± 0.11
QCIKQELICKWIDPEQLSNPKKSCNKTFSTMHEWVTHVSVEHVGGP [L34W]	-0.029 ± 0.096
QCIKQELICKWIDPEQLSNPKKSCNKTFSTMHEGVTHVSVEHVGGP [L34G]	-0.618 ± 0.086
QCIKQELICKWIDPEQLSNPKKSCNKTFSTMHENVTHVSVEHVGGP [L34N]	-0.733 ± 0.15
QCIKQELICKWIDPEQLSNPKKSCNKTFSTMHEEVTHVSVEHVGGP [L34E]	-0.717 ± 0.1
QCIKQELICKWIDPEQLSNPKKSCNKTFSTMHEAVTHVSVEHVGGP [L34A]	-0.641 ± 0.091
QCIKQELICKWIDPEQLSNPKKSCNKTFSTMHEIVTHVSVEHVGGP [L34I]	-0.79 ± 0.15
QCIKQELICKWIDPEQLSNPKKSCNKTFSTMHESVTHVSVEHVGGP [L34S]	-0.617 ± 0.094
QCIKQELICKWIDPEQLSNPKKSCNKTFSTMHECVTHVSVEHVGGP [L34C]	-0.797 ± 0.12
QCIKQELICKWIDPEQLSNPKKSCNKTFSTMHEMVTHVSVEHVGGP [L34M]	0.087 ± 0.095
QCIKQELICKWIDPEQLSNPKKSCNKTFSTMHEQVTHVSVEHVGGP [L34Q]	-0.48 ± 0.12
QCIKQELICKWIDPEQLSNPKKSCNKTFSTMHERVTHVSVEHVGGP [L34R]	-0.705 ± 0.089

Variant	abundance fitness
QCIKQELICKWIDPEQLSNPKKSCNKTFSTMHEYVTHVSVEHVGGP [L34Y]	0.544 ± 0.11
QCIKQELICKWIDPEQLSNPKKSCNKTFSTMHEFVTHVSVEHVGGP [L34F]	-0.039 ± 0.1
QCIKQELICKWIDPEQLSNPKKSCNKTFSTMHEHVTHVSVEHVGGP [L34H]	-0.569 ± 0.14
QCIKQELICKWIDPEQLSNPKKSCNKTFSNMHELVTHVSVEHVGGP [T30N]	0.317 ± 0.12
QCIKQELICKWIDPEQLSNPKKSCNKTFSDMHELVTHVSVEHVGGP [T30D]	-0.072 ± 0.12
QCIKQELICKWIDPEQLSNPKKSCNKTFSQMHELVTHVSVEHVGGP [T30Q]	-0.159 ± 0.11
QCIKQELICKWIDPEQLSNPKKSCNKTFSAMHELVTHVSVEHVGGP [T30A]	0.122 ± 0.096
QCIKQELICKWIDPEQLSNPKKSCNKTFSIMHELVTHVSVEHVGGP [T30I]	-0.315 ± 0.16
QCIKQELICKWIDPEQLSNPKKSCNKTFSWMHELVTHVSVEHVGGP [T30W]	-0.661 ± 0.12
QCIKQELICKWIDPEQLSNPKKSCNKTFSFMHELVTHVSVEHVGGP [T30F]	-0.254 ± 0.14
QCIKQELICKWIDPEQLSNPKKSCNKTFSHMHELVTHVSVEHVGGP [T30H]	-0.596 ± 0.14
QCIKQELICKWIDPEQLSNPKKSCNKTFSCMHELVTHVSVEHVGGP [T30C]	-0.999 ± 0.16
QCIKQELICKWIDPEQLSNPKKSCNKTFSVMHELVTHVSVEHVGGP [T30V]	-0.429 ± 0.099
QCIKQELICKWIDPEQLSNPKKSCNKTFSPMHELVTHVSVEHVGGP [T30P]	-0.923 ± 0.13
QCIKQELICKWIDPEQLSNPKKSCNKTFSKMHELVTHVSVEHVGGP [T30K]	-0.389 ± 0.13
QCIKQELICKWIDPEQLSNPKKSCNKTFSSMHELVTHVSVEHVGGP [T30S]	-0.273 ± 0.096
QCIKQELICKWIDPEQLSNPKKSCNKTFSMMHELVTHVSVEHVGGP [T30M]	-0.765 ± 0.15
QCIKQELICKWIDPEQLSNPKKSCNKTFSRMHELVTHVSVEHVGGP [T30R]	-0.418 ± 0.094
QCIKQELICKWIDPEQLSNPKKSCNKTFSYMHELVTHVSVEHVGGP [T30Y]	-0.96 ± 0.18

Variant	abundance fitness
QCIKQELICKWIDPEQLSNPKKSCNKTFSLMHELVTHVSVEHVGGP [T30L]	-0.802 ± 0.11
QCIKQELICKWIDPEQLSNPKKSCNKTFSEMHELVTHVSVEHVGGP [T30E]	-0.316 ± 0.12
QCIKQELICKWIDPEQLSNPKKSCNKTFSGMHELVTHVSVEHVGGP [T30G]	-0.178 ± 0.092
QCIKQELICKWIDPEQLSNPKKSCNKTFSTMHELWTHVSVEHVGGP [V35W]	0.2 ± 0.089
QCIKQELICKWIDPEQLSNPKKSCNKTFSTMHELRTHVSVEHVGGP [V35R]	0.193 ± 0.084
QCIKQELICKWIDPEQLSNPKKSCNKTFSTMHELNTHVSVEHVGGP [V35N]	0.761 ± 0.1
QCIKQELICKWIDPEQLSNPKKSCNKTFSTMHELFTHVSVEHVGGP [V35F]	0.054 ± 0.11
QCIKQELICKWIDPEQLSNPKKSCNKTFSTMHELSTHVSVEHVGGP [V35S]	0.5 ± 0.086
QCIKQELICKWIDPEQLSNPKKSCNKTFSTMHELPTHVSVEHVGGP [V35P]	-0.848 ± 0.11
QCIKQELICKWIDPEQLSNPKKSCNKTFSTMHELYTHVSVEHVGGP [V35Y]	0.296 ± 0.1
QCIKQELICKWIDPEQLSNPKKSCNKTFSTMHELITHVSVEHVGGP [V35I]	0.03 ± 0.099
QCIKQELICKWIDPEQLSNPKKSCNKTFSTMHELMTHVSVEHVGGP [V35M]	0.245 ± 0.097
QCIKQELICKWIDPEQLSNPKKSCNKTFSTMHELQTHVSVEHVGGP [V35Q]	0.543 ± 0.099
QCIKQELICKWIDPEQLSNPKKSCNKTFSTMHELATHVSVEHVGGP [V35A]	-0.04 ± 0.088
QCIKQELICKWIDPEQLSNPKKSCNKTFSTMHELKTHVSVEHVGGP [V35K]	0.446 ± 0.097
QCIKQELICKWIDPEQLSNPKKSCNKTFSTMHELGTHVSVEHVGGP [V35G]	0.118 ± 0.083
QCIKQELICKWIDPEQLSNPKKSCNKTFSTMHELETHVSVEHVGGP [V35E]	0.529 ± 0.091
QCIKQELICKWIDPEQLSNPKKSCNKTFSTMHELTTHVSVEHVGGP [V35T]	0.302 ± 0.095
